Test results taken from the nanobody polyreactivity screen of Harvey et al. (2022).

Experiment: yeast display, Sf9 membrane polyspecificity reagent, FACS + sequencing; frameworks hold sequencing errors
Method in brief: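 Galactose-induced (36–48 hours) yeast carrying a synthetic nanobody display library were exposed to 10% biotinylated, detergent-solubilized Sf9 membrane reagent at 4 °C for 1 hour. FACS followed streptavidin microbead enrichment, using low and high (top ~1%) gates for expression (anti-HA) and reagent binding (streptavidin). Colony PCR, MiSeq 2 × 250 sequencing and CDR-length filtering followed. Labels for polyreactivity reflect the gate of origin.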

Row | Sequence | polyreactivity (PSR sort gate)
1 | QVQLVESGGGLVQAGGSLRLSCAASGFTFGGNDMGWYRQAPGKERELVAAISWSGGSTYYADSVKGRFTISRDNAKNTVYLLMNSLKPEDTAVYYCAADYYYGKVHFDYWGQGTQVTVSS | low polyreactivity
2 | QVQLVESGGGLVQAGGSLRLSCAASGFTFGGNVMGWYRQAPGKESELVAAITYSGGSTNYADSVKGRFTISRDNAKNTVYLQMNSLKPEDTAVYYCAAGYSYVYWSESAYVYWGQGTQVSVSS | low polyreactivity
3 | QVQLVESGGGLVQAGGSLRLSCAASGFTFGGYAMGWYRQAPGKERELVAAISGRGGRTYYADSVKGRFTISRDNAKNTVYLQMNSLKPEDTAVYYCAAPTNHWTRLSGDYWGQGTQVTVSS | high polyreactivity
4 | QVQLVESGGGLVQAGGSLRLSCAASGFTFGGYAMGWYRQAPGNERELVAAISKSGGRTYYADSVKGRFTISRDNAKNTVYLQMNSLKPEDTAVYYCAASTIWHYDSWGQGTQVTVSS | high polyreactivity
5 | QVQLVESGGGLVQAGGSLRLSCAASGFTFGKYCMGWYRQAPGKERELVAAISASGGITYYADSVKGRFTISRDNAKNTVYLQMNSLKPEDTAVYYCAARRYEPKAVYYWGQGTQVTVSS | high polyreactivity
6 | QVQLVESGGGLVQAGGSLRLSCAASGFTFGKYGMGWYRQAPGKERELVAAISASGGITYYADSVKGRFTISRDNAKNTVYLQMNSLKPEDTAVYYCAVRRRYGAFISYDYWGQGTQVTVSS | high polyreactivity
7 | QVQLVESGGGLVQAGGSLRLSCAASGFTFGKYTMGWYRQAPGKERELVAAISRSGGSTYYADSVKGRFTISRDIAKNTVYFQMNSLKPEDTAVYYCAVDYTYDMDYWGQGTHVTVSS | high polyreactivity
8 | QVQLVESGGGLVQAGGSLRLSCAASGFTFGNNAMGWYRQAPGKERELVAGISRTGGRTYYSDSVKGRFTISRDNAKKTVYLKMNSLKPEDTAVYYCNAVSTLYTGYDYWGQGTQVTVSS | high polyreactivity
9 | QVQLVESGGGLVQAGGSLRLSCAASGFTFGPYAMGWYRQAPGKERELVAAISQSGGRTSYADSVKGRFTISRDNAKNTVYLQMNSLKPEDTSVYYCAKRAYGYRSIYRMDYWGQGTQVTVSS | high polyreactivity
10 | QVQLVESGGGLVQAGGSLRLSCAASGFTFGQYAMGWYRQAPGKERELVAAISWSGGSTYYADSVKGRFTISRDNAKNTVYLQMNSLKPEDTAVYYCGEDLGDYWGQGTQVTVSS | high polyreactivity
11 | QVQLVESGGGLVQAGGSLRLSCAASGFTFGRNAMGWYRPAPGKEMELDATISKSGGSTYYEDSVKGRFTISRDNAKNTVYLQMYSLKPEDSAVYYCAARSRRLPGDYWGQATQVTVSS | low polyreactivity
12 | QVQLVESGGGLVQAGGSLRLSCAASGFTFGRNAMGWYRQAPGKEREFVAAISKSGTSTYYADSVKGRFTISRDNAKNTVYLQMNSLKPEDTAVYYCARTIYAKRWDFDYWGQGTQVTVSS | low polyreactivity
13 | QVQLVESGGGLVQAGGSLRLSCAASGFTFGRNAMGWYRQAPGKERELVARITTGGSTNYADSVKGRFTISRDHAKNTVDLQMNRLKPEDTAVYDCAATYRSLALFWTYGYWGQGTQVTVSS | low polyreactivity
14 | QVQLVESGGGLVQAGGSLRLSCAASGFTFGRYAMGWYIQAPGKERELVAAINWSGTSTYYADSVKGRFTISRDNSKNTVYLQLNILKPEDTAVYYCAVRESGYHTTLYYWGQGTQVTVSS | high polyreactivity
15 | QVQLVESGGGLVQAGGSLRLSCAASGFTFGRYAMGWYRQAPGKERELVAGITWSGGSTSYADSVKGRFTISRDNAKNTVYLQMNSLKPEDTAVYYCATRARYTRVHGRRYAYDYWGQGTQVTVSS | high polyreactivity
16 | QVQLVESGGGLVQAGGSLRLSCAASGFTFGSNAMGWYRQAPGKERELVAAISWSGGRTYYADSVKGRFTISRDNAKNTVYLQMNSLKPEDTAVYYCNKQYVKPWYRGYYYWGQGTQVNVSS | high polyreactivity
17 | QVQLVESGGGLVQAGGSLRLSCAASGFTFGSYAMGWYRQAPGKEREFVAAISLGGARTYYADSVKGRFTISRDNAKNTVYLQMNSLKPEYTAVYDCAATVRGVGYRYYYWGQGTQVTVSS | high polyreactivity
18 | QVQLVESGGGLVQAGGSLRLSCAASGFTFGSYAMGWYRQAPGKERELVAAISSRGGSTYYADSVKGRFTISRDNAKNTVYLQMNSLKPEDTAVYYCNAGYGYIKQYPDYQSKYDYWGQGTQVTVSS | low polyreactivity
19 | QVQLVESGGGLVQAGGSLRLSCAASGFTFGSYVMGWYRQAPGKERELVADISIRGGSTYYADSVKGRFTISRDNSKNTVYLQMNSLKPEDTAVYYCAASYFPFNSGRKVGYWGQGTQVTVSS | low polyreactivity
20 | QVQLVESGGGLVQAGGSLRLSCAASGFTFGTYTMGWYRQAPGKERELVAAIRSSGGRTYYADSVKGRFTISRDNAKNTVYLQMNSLKPEDTAVYYCAAVLFGYPRTFGTWYDRYYYWGQGTQVTVSS | high polyreactivity

Row | Sequence | polyreactivity (PSR sort gate)
21 | QVQLVESGGGLVQAGGSLRLSCAASGFTFGTYVMGWYRQAPGKERELVARITYGGGRTYYADSVKGRFTISRDNAKNTVYLQMNSLKPEDTAVYYCNARVTYSRYFKGYNYWGQGTQVTVSS | high polyreactivity
22 | QVQLVESGGGLVQAGGSLRLSCAASGFTFGVNAMGWYRQAPGKERELVAAISSSGGRTYYADSVKGRFTISRDNAKNTVYLQMNSLKQEDTAVYYCAARYVYTRGGPLKRDYWGQGTQVTVSS | high polyreactivity
23 | QVQLVESGGGLVQAGGSLRLSCAASGFTFGVNAMGWYRQAPGKERELVAVITSGGNTYYADSVKWRFTISRDNAKNTVYLQMNSLKPEDTAVYYCAAYGRASWERDYWGQGTQVTVSS | low polyreactivity
24 | QVQLVESGGGLVQAGGSLRLSCAASGFTFGVYAMGWYRQAPGKERELVAAISRSSGRTYYADSVKGRFTISRDNAKNTVYLQMNSLKPVDTAVYYCAADLRYYGYYTRFRYYEMDYWGQGTQVTVSS | high polyreactivity
25 | QVQLVESGGGLVQAGGSLRLSCAASGFTFGVYAMGWYRQAPGKERELVAAISTTVGSTYYADSVKGRFTISRDNAKNTVYLQMNSLKPEDTAVYDCAAEYTGYINYYIYEYWGQGTQVTVSS | low polyreactivity
26 | QVQLVESGGGLVQAGGSLRLSCAASGFTFGVYAMGWYRQAPGKERELVAAITSGGGRTYADSVKGRFTISRDNAKNTVYLQMNSLKPEDSAVYYCAAQQGISNGTGVSATNPMDYWGQGTQVTVSS | low polyreactivity
27 | QVQLVESGGGLVQAGGSLRLSCAASGFTFGVYAMGWYRQAPGKERELVATISSSGSTNYADSVKGRFTISRDNAKNTVYLQMNSLKPEDSAVYYCAVYYLYRRRQYYYWGQGTKVTVSS | low polyreactivity
28 | QVQLVESGGGLVQAGGSLRLSCAASGFTFGVYARGWYRQAPGKERELVAAISRSSGRTYYADSVKWRFTISRDNAKNTVYLQMNSLKPEDTAVYYCAADLRYYGYYTRFRYYEMDYWGQGTQVTVSS | high polyreactivity
29 | QVQLVESGGGLVQAGGSLRLSCAASGFTFGWNAMGWYRQAPGKERELVAAITSGGITNYADSVKGRFTISRDNAMNTVYLQMNSLKPEDTAVYYCNARPTSRRSWYYWKGYDYWGQGTQVTVSS | high polyreactivity
30 | QVQLVESGGGLVQAGGSLRLSCAASGFTFGYYAMGWYRQAPGKERELVAAINWSGGRTYYADSVKGRFTISRDNAKNTVYLQMNSLKPEDTAVYYCAASSRTKLYYWGQGTQVTVSS | high polyreactivity
31 | QVQLVESGGGLVQAGGSLRLSCAASGFTFGYYAMGWYRQAPGKERELVAAISKSGGSTYYADSVKGRFTISRDNAKNTVYLQMNSLKPEDCAVYYCAAIASIRGYYYWGQGTQVNVSS | high polyreactivity
32 | QVQLVESGGGLVQAGGSLRLSCAASGFTFGYYAMGWYRQAPGKERELVAAITYSGGSTYYADSVKGRFTISRDNAKNTVYLQMNSLNPEDTAVYYCNAYARRYYYGRWYGEFDYWGQGTQVTLSS | low polyreactivity
33 | QVQLVESGGGLVQAGGSLRLSCAASGFTFGYYAMGWYRQAPGKERELVASISWRGGSTYYADSVKGRFTISRDNAKNTVYLQMNSLKPEDTAVYYCATKYTGPYYRTMNYWGQGTQVTVSS | high polyreactivity
34 | QVQLVESGGGLVQAGGSLRLSCAASGFTFGYYAMGWYRQAPGKERELVASMTVRGGSTYYADSVKGRFTISRDNAKNTVYLQINSLKPEDTAVYYCAAKRYPTWYPSQRSRYDSWGQGTQVTVSS | high polyreactivity
35 | QVQLVESGGGLVQAGGSLRLSCAASGFTFGYYGMGWYRQATGKEMELVAAIDCSGASTYYADSVKGRFTISRDNAKNTVDLQINSLKPEDSAVYYCNADRYLYSLYTYEYDYWGHGTQVTVSS | low polyreactivity
36 | QVQLVESGGGLVQAGGSLRLSCAASGFTFHGYAMGWYRQAPGKERELVAAIRSGDRTYYADSVKGRFTISRDNAKNTVYLQMNSLKPEDTAVYYCAVVYGYLYRYSAKYDYWGQGTQVTVSS | low polyreactivity
37 | QVQLVESGGGLVQAGGSLRLSCAASGFTFHKNAMGWYRQAPGKERELVAGISRRAGSTYYADSVKGRFTISRDNAKNTVYLQMNSLKPEDTAVYYCATDRARTGALYYWGQGTQVTVSS | high polyreactivity
38 | QVQLVESGGGLVQAGGSLRLSCAASGFTFHKYAMGWYRQAPGKERELVAAITSSGGSTYYADSVKGRFTISRDNAKNTVYLQMNSLKPEDTAVYYCNARGGGRKSYDYWGQGTQVTVSS | high polyreactivity
39 | QVQLVESGGGLVQAGGSLRLSCAASGFTFHRNAMGWYRQAPGKERELVAAISTRGGSTAYADSVKGRFTISRDNAKNTVYLQMNSLKPEDTAVYYCNTRYVGQRSTWVDQVRRYDYWGQGTQVTVSS | high polyreactivity
40 | QVQLVESGGGLVQAGGSLRLSCAASGFTFHRNAMGWYRQAPGKERELVAAISTRGGSTAYADSVKGRFTISRDTAKNNVYLQMNSLKPEDTAVYYCNTRYVGQRSTWVDQVRRYDYWGQGTQVTVSS | high polyreactivity
